Residues, ends and D or L forms follow the SMILES beside them. No end group written: not given here. *: point of attachment. Propyl(3-UDP) = O=c1ccn([C@@H]2O[C@H](COP(=O)(O)OP(=O)(O)OCCC*)[C@@H](O)[C@H]2O)c(=O)[nH]1; Floc = 5(6)-fluorescein carboxamide; Ahx = NCCCCCC(=O)O

For experiment [1], the target named is OGT. Further details: method as in PMID 23103942. The settings on record: read-out: Kd of donor substrate; cited from earlier work.
The test system of experiment [2] is SH-SY5Y cells. The experiment is described as follows: total O-GlcNAcylation in cell culture, Western blot (SH-SY5Y). The format is cell-based. The settings on record: 24 h, concentrations up to 1 mM. Background: Immunoblotting shows a protein as a band on a membrane.
In experiment [3] the target is T1, hOGT (Homo sapiens, UniProt O15294).
T1 sequence (O15294 312-1031 isoform O15294-3): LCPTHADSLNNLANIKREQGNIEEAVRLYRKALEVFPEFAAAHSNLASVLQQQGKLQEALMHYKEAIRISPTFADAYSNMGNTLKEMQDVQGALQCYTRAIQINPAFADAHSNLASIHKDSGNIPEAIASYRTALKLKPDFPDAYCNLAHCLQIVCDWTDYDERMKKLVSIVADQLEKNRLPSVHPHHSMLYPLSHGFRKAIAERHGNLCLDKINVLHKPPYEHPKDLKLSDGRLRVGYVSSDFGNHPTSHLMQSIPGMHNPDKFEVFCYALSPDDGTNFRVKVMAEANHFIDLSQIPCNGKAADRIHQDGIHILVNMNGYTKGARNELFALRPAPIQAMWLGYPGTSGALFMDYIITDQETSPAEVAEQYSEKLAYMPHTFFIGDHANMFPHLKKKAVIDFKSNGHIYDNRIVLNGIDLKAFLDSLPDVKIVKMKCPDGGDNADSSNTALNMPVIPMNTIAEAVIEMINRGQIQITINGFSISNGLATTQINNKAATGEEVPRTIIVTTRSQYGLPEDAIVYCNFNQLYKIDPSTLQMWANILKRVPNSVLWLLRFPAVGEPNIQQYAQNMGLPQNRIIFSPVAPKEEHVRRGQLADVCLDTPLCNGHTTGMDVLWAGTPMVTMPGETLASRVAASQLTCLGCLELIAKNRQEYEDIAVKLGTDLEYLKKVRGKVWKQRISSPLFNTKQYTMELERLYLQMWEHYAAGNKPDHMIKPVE
The experiment is described as follows: fluorometric hOGT activity assay (UDP formation).

Experiment [4] deals with T1, hOGT. Put plainly: fluorescence polarimetry assay, displacement of probe 17 from hOGT. Format: binding. As to conditions: displacement of 0.75 µM 17 from 0.8 µM hOGT. Here is the method: The derived values of Ki = 7 ± 2 μM (1) and Ki = 5 ± 2 μM (UDP-5S-GlcNAc) were in agreement with the previously reported affinities,[20],[25] validating this assay.
Next, we used this assay platform to examine the effect of the peptide sequence on the inhibitory potency of the S-linked UDP–peptide conjugates. We compiled a set of peptides derived from the known hOGT substrate proteins RB2, TAB1, CK2, and KER, as well as a previously published hOGT sequon[38] (Table 1). The topology of the heptapeptides in the 7-S5C subseries (19–23) was chosen to replicate that of the peptide 5. The nonapeptides 9-S5C (24–26) were designed with a centrally located Cys. […] The TEC reaction of allyl-UDP 4 with all substrates worked routinely well to give an array of the novel S-linked UDP–peptide conjugates 29–38 (Table 1, Table S1) that were evaluated by the modified FP assay (Table 1, Figure 5).
Fluorescence polarimetry measurements […]
probe (125 nM) in 0.1 M Tris-HCl pH 7.5, 0.15 M NaCl, 0.5 mM TCEP and 5% DMSO in a total volume of 25 µL and incubated in the dark for 30 min before read-out.
Binding affinities for ligands were determined by 17 displacement. […] Fluorescence polarisation was measured on a PHERAStar plate reader (BMG LABTECH). Data analysis was performed in GraphPad Prism 7 and binding constants for the labelled 17 and 18 were determined by fitting a one-site – Total binding curve. […]

Experiment [5] deals with human O-GlcNAc transferase (human) (UniProt O15294).
The target in experiment [6] is T2, human O-GlcNAc transferase (human, UniProt O15294 1-1046).
T2 sequence (looked up): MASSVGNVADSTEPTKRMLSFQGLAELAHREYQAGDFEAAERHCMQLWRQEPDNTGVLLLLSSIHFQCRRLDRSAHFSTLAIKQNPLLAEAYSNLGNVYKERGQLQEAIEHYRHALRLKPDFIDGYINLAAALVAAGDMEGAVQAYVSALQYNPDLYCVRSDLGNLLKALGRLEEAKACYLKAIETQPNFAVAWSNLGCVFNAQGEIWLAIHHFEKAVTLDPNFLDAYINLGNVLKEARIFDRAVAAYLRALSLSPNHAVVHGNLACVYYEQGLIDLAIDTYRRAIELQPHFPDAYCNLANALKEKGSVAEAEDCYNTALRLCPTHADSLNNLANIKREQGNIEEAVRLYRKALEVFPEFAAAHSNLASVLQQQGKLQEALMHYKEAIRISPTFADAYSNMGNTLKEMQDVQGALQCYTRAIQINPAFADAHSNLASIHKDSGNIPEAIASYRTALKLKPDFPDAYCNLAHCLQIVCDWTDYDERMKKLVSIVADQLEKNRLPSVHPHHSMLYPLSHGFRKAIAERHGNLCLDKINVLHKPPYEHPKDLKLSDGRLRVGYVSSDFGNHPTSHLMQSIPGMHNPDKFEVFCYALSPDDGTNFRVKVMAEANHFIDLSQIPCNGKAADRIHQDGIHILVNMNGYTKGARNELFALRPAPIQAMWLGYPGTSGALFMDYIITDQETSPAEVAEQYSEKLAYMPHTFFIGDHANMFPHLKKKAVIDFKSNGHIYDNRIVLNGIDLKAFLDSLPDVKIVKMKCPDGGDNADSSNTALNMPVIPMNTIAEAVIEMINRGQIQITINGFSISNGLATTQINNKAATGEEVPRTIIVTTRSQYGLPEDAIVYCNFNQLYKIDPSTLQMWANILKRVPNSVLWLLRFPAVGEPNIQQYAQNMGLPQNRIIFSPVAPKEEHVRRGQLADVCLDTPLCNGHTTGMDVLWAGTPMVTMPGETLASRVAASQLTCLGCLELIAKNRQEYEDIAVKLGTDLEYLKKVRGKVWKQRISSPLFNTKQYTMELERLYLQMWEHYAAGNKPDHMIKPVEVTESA
Put plainly: fluorescence polarisation; competition: displacement of the fluorescent probe 17 from hOGT by unlabeled conjugates, Ki derived. As to conditions: both partners purified. For orientation: In fluorescence polarisation assays a small probe gives low polarisation when free and higher when bound to something large.

For experiment [7], the target named is T2, human O-GlcNAc transferase. The experiment is described as follows: cell-based or functional assay.
Experiment [8] deals with T2, human O-GlcNAc transferase. The experiment is described as follows: fluorescence polarisation; competition: displacement of the fluorescent probe 17 from hOGT by unlabeled conjugates, Ki derived. The settings on record: both partners purified. This is another data set of the same source.
In experiment [9] the target is T2, human O-GlcNAc transferase. Put plainly: fluorescence polarisation; direct binding of the fluorescein-labeled conjugates 17 and 18 to hOGT. As to conditions: both partners purified.

As usually defined, the Kd is the concentration at which binding is half-saturated. For `CC(=O)N[C@H]1[C@@H](OP(=O)(O)OP(=O)(O)OC[C@H]2O[C@@H](n3ccc(=O)[nH]c3=O)[C@H](O)[C@@H]2O)O[C@H](CO)[C@@H](O)[C@@H]1O` [UDP-GlcNAc], the dissociation constant Kd in [1] is 16 µM.
For orientation: IC50 means the concentration that gives 50% inhibition. A lower IC50 goes with inhibition by little substance. On to `CC(=O)N[C@@H](Cc1ccc(O)cc1)C(=O)NCC(=O)N[C@@H](CCCNC(=N)N)C(=O)N[C@@H](CCCCN)C(=O)N[C@@H](CCCCN)C(=O)N[C@@H](CCCNC(=N)N)C(=O)N[C@@H](CCCNC(=N)N)C(=O)N[C@@H](CCC(N)=O)C(=O)N[C@@H](CCCNC(=N)N)C(=O)N[C@@H](CCCNC(=N)N)C(=O)N[C@@H](CCCNC(=N)N)C(=O)NCCOCCOCC(=O)N[C@H](C(=O)N[C@H](C(=O)N1CCC[C@H]1C(=O)N[C@H](C(=O)N[C@@H](CSCCCOP(=O)(O)OP(=O)(O)OC[C@H]1O[C@@H](n2ccc(=O)[nH]c2=O)[C@H](O)[C@@H]1O)C(=O)N[C@H](C(=O)N[C@@H](C)C(N)=O)[C@@H](C)O)C(C)C)[C@@H](C)O)C(C)C` [compound 13], for which the “effect on total O-GlcNAcylation in cell cultures” value in [2] is “neither 11 nor 13 had a noticeable effect”. In addition, the IC50 in experiment [3] worked out at 5 µM.
The term Ki denotes the equilibrium dissociation constant of an inhibitor or competing ligand from its target. `CC(=O)N[C@H](C(=O)N[C@H](C(=O)N1CCC[C@H]1C(=O)N[C@H](C(=O)N[C@@H](CSCCCOP(=O)(O)OP(=O)(O)OC[C@H]1O[C@@H](n2ccc(=O)[nH]c2=O)[C@H](O)[C@@H]1O)C(=O)N[C@@H](CCCNC(=N)N)C(=O)N[C@@H](C)C(N)=O)C(C)C)[C@@H](C)O)C(C)C` [compound 32] (Ac-VTPVC(Propyl(3-UDP))RA-NH2) had a Ki in experiment [4] of 1.3 ± 0.5 µM.
The molecule “TAT-VTPVC(S-propyl-UDP)TA S-linked UDP-peptide conjugate 13” had an inhibition of hOGT activity in vitro, IC50 in experiment [5] of 5 µM.
In turn, `CC(=O)N[C@@H]1[C@@H](O)[C@H](O)[C@@H](CO)S[C@@H]1OP(=O)(O)OP(=O)(O)OC[C@H]1O[C@@H](n2ccc(=O)[nH]c2=O)[C@H](O)[C@@H]1O` [UDP-5S-GlcNAc, reference compound] had a Ki in experiment [4] of 5 ± 2 µM.

B1: S-linked UDP-peptide conjugate 30, SVPYC(S-propyl-UDP)SA (peptide)
peptide: SVPYC(S‑propyl‑UDP)SA
Take B1: the Ki in experiment [6] was found to be 2.3 ± 1.6 µM.

B2: S-linked UDP-peptide conjugate 37, PVC(S-propyl-UDP)TATHSLSRLH (peptide)
peptide: PVC(S‑propyl‑UDP)TATHSLSRLH
With B2, affinity in experiment [6] was put at a Ki of 80 ± 46 µM.

B3: S-linked UDP-peptide conjugate 29, VPTVC(S-propyl-UDP)TA (peptide)
chain: VPTVC(S‑propyl‑UDP)TA
In experiment [6], B3 displayed a Ki of 12.8 ± 4.5 µM.

B4: S-linked UDP-peptide conjugate 34, VTPVC(S-propyl-UDP)TATH (peptide)
peptide: VTPVC(S‑propyl‑UDP)TATH
In experiment [6], B4 registered an inhibition constant (Ki) of 12.7 ± 2.3 µM.

B5: S-linked UDP-peptide conjugate 36, PVFTC(S-propyl-UDP)RSAA (peptide)
peptide: PVFTC(S‑propyl‑UDP)RSAA
B5 gave a Ki in [6] of 56 ± 32 µM.

B6: S-linked UDP-peptide conjugate 38, KENSPAVTPVC(S-propyl-UDP)TA (peptide)
peptide: KENSPAVTPVC(S‑propyl‑UDP)TA
In the case of B6, the Ki in experiment [6] was found to be 1.8 ± 1.3 µM.

B7: S-linked UDP-peptide conjugate 6, VTPVC(S-propyl-UDP)TA (peptide)
peptide: VTPVC(S‑propyl‑UDP)TA
The molecule B7 had a Ki in experiment [6] of 1.3 ± 0.8 µM. In addition, in experiment [7], the “inhibition of hOGT activity, fluorometric OGT activity assay, IC50” value amounted to 2 µM.

B8: S-linked UDP-peptide conjugate 31, VTPVC(S-propyl-UDP)SA (peptide)
peptide: VTPVC(S‑propyl‑UDP)SA
In experiment [6], B8 had an inhibition constant (Ki) of 1.2 ± 1.3 µM.

B9: O-linked UDP-peptide conjugate 1, VTPVS(O-propyl-UDP)TA (peptide)
peptide: VTPVS(O‑propyl‑UDP)TA
In the case of B9, affinity in experiment [8] was put at a Ki of 7 ± 2 µM.

B10: S-linked UDP-peptide conjugate 33, PVFTC(S-propyl-UDP)RS (peptide)
peptide: PVFTC(S‑propyl‑UDP)RS
As to B10, in experiment [6], the Ki turned out to be 12.5 ± 7 µM.

B11: S-linked UDP-peptide conjugate 35, SVPYC(S-propyl-UDP)SAQS (peptide)
peptide: SVPYC(S‑propyl‑UDP)SAQS
In turn, B11 returned an inhibition constant Ki in [6] of 15 ± 2.3 µM.

B12: 5(6)-fluorescein carboxamide (Floc) labeled S-linked UDP-peptide conjugate 17 (peptide)
chain: {Floc-Ahx}-VTPVC(S‑propyl‑UDP)TA
In [9], B12 showed a Kd of 1.6 µM.
